Results as given in article PMC5443882.
Values joined by “and” are separate entries in the source; they are usually repeats but may differ in a detail not shown here. Equal entries are not always repeated.

Assays:
[1] = target: LHCII, the major light-harvesting pigment-protein complex of Photosystem II (Spinacia oleracea (endogenous in spinach leaves)); test: native gel or EMSA; non-denaturing gel electrophoresis of LHCII from dark-adapted leaves in 0.1% DM under constant illumination from sample loading, each slot at a different light intensity (11-1240 µmol photons m^-2 s^-1); 4 °C
[2] = target: LHCII, the major light-harvesting pigment-protein complex of Photosystem II (Spinacia oleracea (endogenous in spinach leaves)); test: native gel or EMSA; identical experiment with thylakoid membranes from dark-adapted spinach leaves solubilised in 0.1% DM, electrophoresis under illumination of increasing intensity (Fig. S4)
[3] = target: LHCII, the major light-harvesting pigment-protein complex of Photosystem II (Spinacia oleracea (endogenous in spinach leaves)); test: fluorescence correlation spectroscopy; mixture of LHCII trimers and monomers in 0.1% DM, illuminated with blue light of 100 µmol photons m^-2 s^-1 for 30 min, diluted to 3 nM; the form is assigned by its diffusion coefficient against monomer and trimer standards
[4] = target: LHCII, the major light-harvesting pigment-protein complex of Photosystem II (Spinacia oleracea (endogenous in spinach leaves)); test: native gel or EMSA; lipid-LHCII samples enriched with exogenously added zeaxanthin, separated by native electrophoresis; dimer bands cut out for spectroscopy
[5] = target: LHCII, the major light-harvesting pigment-protein complex of Photosystem II (Spinacia oleracea (endogenous in spinach leaves)); test: native gel or EMSA; non-denaturing gel electrophoresis of LHCII-HL, isolated from spinach leaves pre-illuminated with 1200 µmol photons m^-2 s^-1, suspended in 0.1% DM; 4 °C, running buffer 96 mM glycine, 12.5 mM Tris, 0.05% LDS
[6] = target: LHCII, the major light-harvesting pigment-protein complex of Photosystem II (Spinacia oleracea (endogenous in spinach leaves)); test: native gel or EMSA; non-denaturing gel electrophoresis of LHCII isolated from dark-adapted spinach leaves, suspended in 0.1% DM; 3% stacking and 8% separating gel, 4 °C, running buffer 96 mM glycine, 12.5 mM Tris, 0.05% LDS

- stoichiometry N [1]: 3 and 2
- stoichiometry N [2]: 3 and 2
- stoichiometry N [3]: 2
- stoichiometry N [4]: 2
- stoichiometry N [5]: 3 and 2
- trimer/monomer ratio [5]: 0.71
- stoichiometry N [6]: 3
- trimer/monomer ratio [6]: 2.82
Substance: LHCII, the major light-harvesting pigment-protein complex of Photosystem II (natural protein)
